Results taken from patent US20210388087A1 (Chugai, published 2021).
Residue numbers refer to the chain shown, from its start. Names and notes keep the numbering of the source.

T1: Human CD3eg linker (human)
T1 construct: Single-chain construct; also called recombinant human CD3
T1 chain: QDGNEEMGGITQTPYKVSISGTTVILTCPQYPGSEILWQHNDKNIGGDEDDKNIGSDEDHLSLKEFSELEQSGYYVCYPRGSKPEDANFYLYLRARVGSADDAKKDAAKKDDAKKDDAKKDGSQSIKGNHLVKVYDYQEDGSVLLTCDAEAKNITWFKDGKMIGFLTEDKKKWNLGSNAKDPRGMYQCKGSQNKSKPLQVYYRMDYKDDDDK

B1: H183/L072 VL T97I (antibody, name in Kabat numbering, V domains shown)
VH: QVQLVESGGGLVQPGRSLRLSCAASGFTFSNAWMHWVRQAPGKGLEWVAQIKDKGNAYAAYYAPSVKGRFTISRDDSKNSIYLQMNSLKTEDTAVYYCHYVHYASASTVLPAFGVDAWGQGTTVTVSS
VL: DIVMTQSPLSLPVTPGEPASISCQASQELVHMNRNTYLHWYQQKPGQAPRLLIYKVSNRFPGVPDRFSGSGSGTDFTLKISRVEAEDVGVYYCAQGTSVPFIFGQGTKLEIK
B2: H183/L072 VL V27cE (antibody, name in Kabat numbering, V domains shown)
VH: B1 VH
VL: B1 VL with V30E, I102T
B3: H183/L072 VL V27cI (antibody, name in Kabat numbering, V domains shown)
VH: B1 VH
VL: B1 VL with V30I, I102T
B4: H183/L072 VL V27cT (antibody, name in Kabat numbering, V domains shown)
VH: B1 VH
VL: B1 VL with V30T, I102T
B5: H183/L072 VL T97K (antibody, name in Kabat numbering, V domains shown)
VH: B1 VH
VL: B1 VL with I102K
B6: H183/L072 VL V27cQ (antibody, name in Kabat numbering, V domains shown)
VH: B1 VH
VL: B1 VL with V30Q, I102T
B7: H183/L072 VL V27cA (antibody, name in Kabat numbering, V domains shown)
VH: B1 VH
VL: B1 VL with V30A, I102T
B8: H183/L072 VL V51A (antibody, name in Kabat numbering, V domains shown)
VH: B1 VH
VL: B1 VL with V56A, I102T
B9: H183/L072 VL V51G (antibody, name in Kabat numbering, V domains shown)
VH: B1 VH
VL: B1 VL with V56G, I102T
B10: H183/L072 VL V27cN (antibody, name in Kabat numbering, V domains shown)
VH: B1 VH
VL: B1 VL with V30N, I102T
B11: H183/L072 VL V51L (antibody, name in Kabat numbering, V domains shown)
VH: B1 VH
VL: B1 VL with V56L, I102T
B12: H183/L072 VL V27cF (antibody, name in Kabat numbering, V domains shown)
VH: B1 VH
VL: B1 VL with V30F, I102T
B13: H183/L072 VL V27cH (antibody, name in Kabat numbering, V domains shown)
VH: B1 VH
VL: B1 VL with V30H, I102T
B14: H183/L072 VL T97N (antibody, name in Kabat numbering, V domains shown)
VH: B1 VH
VL: B1 VL with I102N
B15: H183/L072 VL V51E (antibody, name in Kabat numbering, V domains shown)
VH: B1 VH
VL: B1 VL with V56E, I102T
B16: H183/L072 VL T97S (antibody, name in Kabat numbering, V domains shown)
VH: B1 VH
VL: B1 VL with I102S
B17: H183/L072 VL T97R (antibody, name in Kabat numbering, V domains shown)
VH: B1 VH
VL: B1 VL with I102R
B18: H183/L072 VL V27cM (antibody, name in Kabat numbering, V domains shown)
VH: B1 VH
VL: B1 VL with V30M, I102T
B19: H183/L072 VL V27cK (antibody, name in Kabat numbering, V domains shown)
VH: B1 VH
VL: B1 VL with V30K, I102T
B20: H183/L072 VL T97Q (antibody, name in Kabat numbering, V domains shown)
VH: B1 VH
VL: B1 VL with I102Q
B21: H183/L072 VL V27cW (antibody, name in Kabat numbering, V domains shown)
VH: B1 VH
VL: B1 VL with V30W, I102T
B22: H183/L072 VL V27cY (antibody, name in Kabat numbering, V domains shown)
VH: B1 VH
VL: B1 VL with V30Y, I102T
B23: H183/L072 VL T97L (antibody, name in Kabat numbering, V domains shown)
VH: B1 VH
VL: B1 VL with I102L
B24: H183/L072 VL T97V (antibody, name in Kabat numbering, V domains shown)
VH: B1 VH
VL: B1 VL with I102V
B25: H183/L072 VL V51K (antibody, name in Kabat numbering, V domains shown)
VH: B1 VH
VL: B1 VL with V56K, I102T
B26: H183/L072 VL V51H (antibody, name in Kabat numbering, V domains shown)
VH: B1 VH
VL: B1 VL with V56H, I102T
B27: H183/L072 VL V27cS (antibody, name in Kabat numbering, V domains shown)
VH: B1 VH
VL: B1 VL with V30S, I102T
B28: H183/L072 VL V27cR (antibody, name in Kabat numbering, V domains shown)
VH: B1 VH
VL: B1 VL with V30R, I102T
B29: H183/L072 VL V27cL (antibody, name in Kabat numbering, V domains shown)
VH: B1 VH
VL: B1 VL with V30L, I102T
B30: H183/L072 VL T97M (antibody, name in Kabat numbering, V domains shown)
VH: B1 VH
VL: B1 VL with I102M
B31: H183/L072 VL V51D (antibody, name in Kabat numbering, V domains shown)
VH: B1 VH
VL: B1 VL with V56D, I102T
B32: H183/L072 VL V51I (antibody, name in Kabat numbering, V domains shown)
VH: B1 VH
VL: B1 VL with V56I, I102T
B33: H183/L072 VL V27cD (antibody, name in Kabat numbering, V domains shown)
VH: B1 VH
VL: B1 VL with V30D, I102T

Biological target: T1, Human CD3eg linker
Test: SPR; fold vs parent H183/L072

fold change of affinity	Binder
0.5 fold	B1
0.7 fold	B2
1 fold	B3
0.8 fold	B4
0.6 fold	B5
1 fold	B6
0.4 fold	B7
0.6 fold	B8
0.4 fold	B9
0.3 fold	B10
0.6 fold	B11
0.5 fold	B12
0.3 fold	B13
0.5 fold	B14
0.4 fold	B15
1.1 fold	B16
0.4 fold	B17

fold change of affinity	Binder
1.1 fold	B18
1.1 fold	B19
0.5 fold	B20
0.3 fold	B21
0.5 fold	B22
0.4 fold	B23
0.6 fold	B24
0.8 fold	B25
0.2 fold	B26
0 fold	B27
1.2 fold	B28
0.8 fold	B29
0.7 fold	B30
0 fold	B31
1.4 fold	B32
0.1 fold	B33
